Test results published in the nanobody polyreactivity screen of Harvey et al. (2022).

assay: yeast display, Sf9 membrane polyspecificity reagent, FACS + sequencing; frameworks hold sequencing errors
Outline: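 In a synthetic yeast display library (Saccharomyces cerevisiae BJ5465), nanobody expression was induced with galactose for 36–48 hours. FACS gates were set low and high (top ~1%) using anti-HA fluorescence for expression and streptavidin fluorescence for binding of the Sf9 membrane reagent. Each polyreactivity label is drawn from the gate of origin.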

Sequence	polyreactivity (PSR sort gate)
QVQLVESGGGLFKEGGSLRLSCAASASYFWFNAMGWYRQAPGKEREFGASISRSGGTTYYADSVKGRFTISRDNAKNTVYLQMKSVIPEDTAVYYCNARAFGTGVGTGYFGKDRYDYWGQGSQVTVSS	low polyreactivity
QVQLVESGGGIVQAGGSLRLSCAASGSIFEPNAMGWYRQAPGQEREFVAAISGSGGSTYYADSVKGRFTSSRDNAKNTVYLQRNSLKPEDTAVYYCNALYLRTTPQDYDYWGQGTQVTVSS	high polyreactivity
QVQLVESGGGLVQAGGSLRLSCAPSGRTFGYNGRGWSRQEPGKESELVAAINSGGNTNYADSVKGRFTISRDYAKNTVYLQMNSLKPEDTAVYYCAKYGTLFEPVPNEYDYWGQGTQVTVSS	low polyreactivity
QVQLVLLGGGLVQAGGTLRVSCAPSGSIIYWKDRGWYRQAPGKERELDASITASGSSTYYADSVKGRFTISRDNGKNTVYLQMNSLLPEDTAVYYCNTSVFTYYDSAYDYWGQGTQVTVSS	low polyreactivity
QVQLVESGGGLVQAGGSLRLSCAASGGIFFPNAMGWYRQAPGKERELVAAISWSAGSTYYADSVKGRFTISRDNAKNTVYLQMNSLKPEDTAVYYCAAAGSNYTVWYGYYYWGQGTQVTVSS	low polyreactivity
QVQLVESGGGLVQAGGSLRLSCAASGSIFASYAMGWYRQAPGKERELVAAISARGGSTYYADSVKGRFTISRDNAKNTVYLQMNSLKPEDTAVYYCAARHQQGRRISDYGYWGQGTQVTVSS	high polyreactivity
QVQIVESGGGLVQAGGSLRLSCAASGSIFFYYSMGWYRQAPGKERELVAAISVGGSTYYADSVKGRFTISRDNAKNTVYLQMNSLKPEDTAVYSFNAVPAKGYVTVVRYYYWGQGTQVTVSS	low polyreactivity
QVQLVESGGGLVHAGGSLRLSCAASGSIFYHNPMGWYRQAPGKERELVAAISGRGGSTYYADSVKGRFTISRDNAKHTVYLQMNSLKPEDSAVYYCAADARYQNGGLYYWGQGTHVTVSS	high polyreactivity
QVQLVESGGGLVQAGGSLRLSRAASGRTFYGYAMGWYRQAPGKESELVARIRSGGSTNYADSVKGRFTISRDNAKNTVYLQMNSLIPEDTAVYYCAARPGAAGYKYYYWGQGTQVTVSS	high polyreactivity
QVQLVESGGRLVQAGGSLRLSCAASGSTIVRNGMGWYRQAPGKERELVAAITRGGSTYYADSVKGRFTISRDNAKNTVYLQMNSLKPEDTAVYYCATYDPARSTQGYDYWGQGTQVTVSS	high polyreactivity
QVQLVESGGGLVQAGGSLRLSCAASGFTFRYYAMGWYRQAPGKERELVATITSGGRTYYADSVKGRFTISRDNAKNTVYLQMNSLKPEDTAVYYCAADVWYVRTKYGYDYWGQGTQVTVSS	high polyreactivity
QVQLVESGVGLVQAGGSLRLSCAASGLIFPYYAMGWYRQAPGKERELVAAITSGSGTYYADSVKGRFTISRDNGKNTVYIQMNSLKPEDTAVYYCNAYILFWEYGYWGQGTQVTVSS	high polyreactivity
QVQLVESGGGLVQAGGSLRLSCAASGSTFKVYAMGWYRQAPGKERELVAAISQSGGSTYYADSVKGRFTITRDNAKNTVYFQMKSLKPEDTAVYYCAVRTYVYHWSFSSLPYDYWGQGTQVTVSS	high polyreactivity
QVQLVESGGGLVQAGGSLRLSCAASGSIFRVYAMGWYRQAPGKERELVAAISWGGGTTYYADSVKGRFTISRDNAKNTVYLQMNSLKPEDTAVYYCNKVGVRSGARSIYVVRRYEYWGQGTQVTVSS	high polyreactivity
QVQLVESGGGLVQAGGSLRLSCAASGRIFNKNAMGWYRQAPGKERELVAAITYSGGSTYYADSVKGRFTISRDNAKNTVYLQMNSLKPEDTAVYYCARDLYYVYSFAPYRYEYWGQGTQVTVSS	low polyreactivity
QVQLVESGGGLVQAGGSLRLSCAASGIIIDYYTMGWYRQAPGQERELVAAINKSGGSTYADSVKGRFTISRDNAKNTVYLQMNSLKPEDTAVYYCAAEVDYSYWPEYARKYYYWGQGTQVTVSS	low polyreactivity
QVQLVESGGGLVQAGGSLRLSCAASGRTFFINTMGWYRQAPGKEREFVAAITWSAGRTYYADSVKGRFTISRDNAKNTVYLQMNSLKPEDTAVYYCAAALHGHTFPFYYWGQGTQVTVSS	low polyreactivity
QVQLVESGGGLVQAGGSLRLSCAASGRIIDRNAMGWYRQAPGKERELVAAISSSGSTNYADSVKGRFTISRDNAKNTVYLQLNSLKPEDTAVYYCAARWRSVLASGTRPVSFDYWGQGTQVTVSS	low polyreactivity
QVQLVESGGGLVQAGGSLRLSCAASGSILAYNAMGWYRKAPGKERELVAAIRLSGGSTYYADSVKGRFTISRDNAKNTVYLQMNSLKPEDTAVYYCARRYYRYDTRKYNYWGQGTQVTVSS	high polyreactivity
QVQLVESGGGLVQAGGSLRLSCAASGRIFSWYAMGWYRQAPGKERELVAAISASGSSTYYADSVKGRFTISRDNAKNTVYLQMNSLKPEDTAVYYCNTVSAYYARRSEGYDYWGQGTQVTVSS	high polyreactivity

Sequence	polyreactivity (PSR sort gate)
QVQLVESGGGLVQAGGSLRLSCPASGLTFGWYAMGWYRQAPGKERELVASITRRSGSTYYADSVKGRFTISRDNAKNTVYLQMNSLKPEDTAVYFWAARSRGTTRFDYWGQGTQVTVSS	high polyreactivity
QVQLVESGGGLVQAGGSLRLSCAASGGTFVGYAMGWSRQAPGKERELVASITRRGGNTYYADSVKVRFTISRDNATNTFYLQMNSLNPEDTAVYYCANALVVQYGRYTGHPYDYWGQGTQVTVSS	high polyreactivity
QVQLVESGGGLVQAGGSLRLSCAASGRMFHIYAMGWYRQAPGKERELVAGITTSGGSTYYADSVKGRFTISRDNAKNTVYLQMNSLKPEDTSVDYCARDGLWWCGLTKRWWEFYYWGQGTQVTVSS	low polyreactivity
QVQLVESAGGLVQAGGSLSLSCDASGNTFLGYAMGWYRQAPGKERELVAAISKRGGSTYYADSVKGRFTISRDNAKNTVYLQMNSLQPEDTAVYYCNAVPPRDNGSWGQGTQVTVSS	high polyreactivity
QVQLVESGGGLVQAGGSLRLSCAASGFTFSFYAMGWYRQAPGKERELVASISDSDGITFYADSVKGSFTISRDNAKNTVYLPMKSLKPEDTAVYYCAADVAIAIPFSYDYWGQGTQVTVSS	low polyreactivity
QDQLVESGGGLDQAGGSLRLICAASGRIFIYYAMGWYRQAPGKETELVAAISSTGTTNYADSVKGRFTISRDNAKNTVYLQMTSLKPEDTAVYFCAARVRTATRRFTSYSWGQGTQVTVSS	high polyreactivity
QVQLVESGGGLVQAGGSLRLSCAASGYTFWYNAMGWYIPAPGKERELVAAIRSSGARTYYADSVKGRFTISRDNAKNTVYLQMNSLKPEDTAVYYCAASLRSGGRSHYYWGQGTQVTVSS	high polyreactivity
QVQLVESGGGLVQAGGSLRLSCAASGRIFIVYAMGRYRQAPGKERELVAAISWNGGRTYYADSVKGRFTISRDNAKNTVYLQMNSLKPEDTAVYYCNAVALYPYTTYDYWGQGTQVTVSS	high polyreactivity
QFQLVESGGGLVQAGGSLRLSCAASGRIFSLNAMGWYRQAPGKESELVAAITSTGGTTYYADSVKGRFTISRDNAKNTVYLQMNSLKPEDTAVYYCAADYYSYAWHGWYYSDHYDYWGQGTQVTVSS	low polyreactivity
QVQLVESGGGLVQAGGSLRFSCAASGFIFVRYAMGWYRQAPGKERELVAAISGSGGRTYYADSVKGRFTISRDNAKNTVYLQMTSLKPEDTAVYYCNGTSYTYGYLPYDYWGQGTQVTVSS	high polyreactivity
QVQIVESGGGLVQAGGSLRLSCAASGSICTHNDMGWYRPSTWKERELVAAISTSGGRTYDADSVKGSFTISRDTAKNTVYLPMNSLKPEDTAVYYCNDRSVRSRYDYWGQGTQVTVSS	high polyreactivity
QVQLVESGGGLVQAGGSLSIICAASGFTFRYYAMGWYREAPGKERELVAAISKSGTSTYYADSVKGRFTISRDNAKNTVYLQMNSLKPEDTAVYYCAARRGRRYYYWGQGTQVTVSS	high polyreactivity
QVQLVESGGGLVQAGGSLRLSCAASGYIIDNNSMAWYRQAPGKERELVASNTNSAGSTSYADSVKGRFTISRDNAKNTVYLQMNSLKPEDTAVYYCAAKRYHYFFPYSRRGAYGYWGQGTQVTVSS	high polyreactivity
QVQLVESGGGLVHAGGSLRLSCASSGSTFRPYAMGCYRQAPGKERELVAAIRKIGGRTYYADSVKGRFTISRDNANNTVYLQMNSLKPEDTAVYNCNKRIGGGVHAYNYWGQGTQVSVSS	low polyreactivity
QVQLVESGGGLVQAGGSLRLSCAASGFIFWQNAMGWSRQAPGKEREWVADISWSGGGSTYYADSVKGRFTISRDNAKNTVYLQMNSLKPADTALYYCAASQVYSYYGTYYSAYDYWGQGTQVTVSS	low polyreactivity
QVQLVESGGGLVQAGGSLRLSCAASGTFSQYAMGWYRQAPGKERELVAAISQGGGSTYYADSVKGRFTISRDNAKNTVYLQMNSLKPEDTAVYYCARSRSYWGIVYGRYDYWGQGTQVTVSS	high polyreactivity
QVQLVESGGGLVQAGGSLRLSCAASGSTFVYYAMGWYIQAPGKEREFVAGISRSGGSTYYADSVKGRFTISRDNAMNTVYLQMNSLKPEDTAVYSCNASGGLPKYGYWGQGTQVTVSS	high polyreactivity
QVQLVESGGGLGQAGGSLRLSCAASGSTFGRYVMGWYRQAPGKERELVAAISKNSGSTYYAYSVKGRFTISRDNAKNTVYLQMNSLKPEDTAVYYCAADWRSKGYDSLGQGTQVTVSS	high polyreactivity
QVQLVESGGGLVQAGGSLRLSCAASGSTFQLYAMGWYRQAPGKERELVAGISRDGSTYYADSVKGRFTISRDNAKNTVYLQMNSLKPEDTAVYYCAAKYYGNKRDLYYWGQGTQVTVSS	low polyreactivity
QVQLVESGGGLVQEGGSLRLSCAASGSIFPYYAMGWYRQAPGKERELVAAISSAGSTNYADSVKGRFTISRDNAKNTVYLQMNSLKPEDTAVYYCAADLFYREFDYWGQGTQVTVSS	low polyreactivity
